B1: library; numbered along this chain (parent)
chain: MRKPRAAVGSGHRKQAASQEGRQKHAKNNSQAKPSACDGLARQPEEVVLQASVSSYHLFRDVAEVTAFRGSLLSWYDQEKRDLPWRRRAEDEMDLDRRAYAVWVSEVMLQQTQVATVINYYTGWMQKWPTLQDLASASLEEVNQLWAGLGYYSRGRRLQEGARKVVEELGGHMPRTAETLQQLLPGVGRYTAGAIASIAFGQATGVVDGNVARVLCRVRAIGADPSSTLVSQQLWGLAQQLVDPARPGDFNQAAMELGATVCTPQRPLCSQCPVESLCRARQRVEQEQLLASGSLSGSPDVEECAPNTGQCHLCLPPSEPWDQTLGVVNFPRKASRKPPREESSATCVLEQPGALGAQILLVQRPNSGLLAGLWEFPSVTWEPSEQLQRKALLQELQRWAGPLPATHLRHLGEVVHTFSHIKLTYQVYGLALEGQTPVTTVPPGARWLTQEEFHTAAVSTAMKKVFRVYQGQQPGTCMGSKRSQVSSPCSRKKPRMGQQVLDNFFRSHISTDAHSLNSAAQ

Variants of: B1
Assay: 8OG:A repair function score (normalized; synonymous = 0, nonsense = -1) (normalized log-likelihood score); higher = more repair activity (WT-like)
Settings: with 8OG:A DNA repair reporter (GFP) in HEK-293 MUTYH KO cells
Summary of the method: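 MUTYH knockout HEK-293 cells carrying lentiviral MUTYH cDNA NNN codon-scan libraries were grown with 10 pg/ml doxycycline and co-transfected with mCherry and a GFP reporter of 8OG:A repair. Viable mCherry+ cells were sorted at 72 h into GFP+ (repair) and GFP− bins, with three replicates per tile, and tile amplicons were sequenced. Rosace fitness scores for each tile were turned into a normalized repair function score anchored on the synonymous and nonsense distributions. Synonymous medians were set to 0 and nonsense medians to -1, and variants below 300 counts per million at the start were dropped.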

8OG:A repair function score: each site, then its substitutions
T476: S 0.00281, V -0.0294, F 0.0194, H -0.0339, L -0.0267, N -0.0111, P -0.0234, Q -0.0039, C -0.0603, M -0.0533, D 0.00347, G -0.0416, R -0.0215, E 0.0105, W -0.159, K 0.024, I -0.074, A -0.0442, Y -0.0187
G471: V 0.00448, S 0.0169, W -0.0505, R 0.00545, N 0.00878, D 0.0172, M 0.011, A 0.0172, E -0.0561, Y 0.0198, F -0.0055, K 0.0191, Q 0.00928, T -0.0359, I -0.00761, L -0.0292, C -0.0198, H 0.00339, P -0.0663
C477: A -0.00821, E -0.0756, P -0.00239, I -0.0054, Q 0.0117, F -0.0432, D 0.016, K 0.00687, W 0.00839, Y -0.016, S -0.00994, M 0.00893, R 0.000623, G -0.00235, T 0.019, V -0.0256, L 0.0205, N 0.0283, H 0.0203
M478: W 0.0205, A -0.0431, C 0.0262, V -0.00439, I -0.0519, R -0.0213, P -0.0126, D -0.0222, K 0.00017, H -0.119, S -0.00625, L -0.0153, G 0.0207, N -0.0119, Y 0.0167, Q 0.0193, E 0.0141, T -0.0383, F 0.0278
R467: D -0.0155, F -0.0681, T -0.0575, V -0.105, E -0.144, A 0.0232, K -0.0257, C -0.137, M -0.057, P -0.876, N -0.0631, S -0.0606, W -0.034, I -0.0576, L -0.0425, Y -0.0417, Q -0.0758, H -0.0349, G -0.0609
K463: G -0.303, M -0.0542, S -0.241, H -0.12, N -0.338, E -0.265, T -0.141, R -0.0765, L -0.0958, A -0.157, W -0.075, D -0.287, V -0.129, F -0.101, Y -0.191, I -0.089, C -0.196, P -0.617, Q -0.183
Q473: L -0.0116, A -0.00985, S 0.00408, W 0.0181, F 0.00513, N 0.0155, D -0.0165, I -0.0484, H 0.0203, K -0.0281, M 0.0265, P -0.0268, V 0.00634, E -0.021, T -0.00244, Y -0.023, C 6.68e-05, R 0.00304, G 0.0222
V465: K -1.19, T -0.191, A -0.0879, D -0.864, G -0.801, M -0.396, E -1.42, S -0.646, P -1.18, R -1.13, W -1.07, H -0.79, F -0.73, N -0.54, Q -1.17, Y -1.23, C 0.0124, L -0.379, I -0.0425
Y469: T -0.181, L -0.314, N -0.738, M -0.259, S -0.115, W 0.00845, V -0.153, F -0.0628, D -0.955, K -0.326, R -0.195, E -0.89, I -0.259, G -0.451, H -0.0773

Reference: the supplement of paper PMC11908140
